The values below come from article PMC10269845.

This experiment addresses plasminogen (UniProt P00747). Briefly: SPR. For orientation: In SPR one partner is held on a chip, and binding of the other changes the refractive index at the surface.

Sequence of plasminogen (P00747 20-810): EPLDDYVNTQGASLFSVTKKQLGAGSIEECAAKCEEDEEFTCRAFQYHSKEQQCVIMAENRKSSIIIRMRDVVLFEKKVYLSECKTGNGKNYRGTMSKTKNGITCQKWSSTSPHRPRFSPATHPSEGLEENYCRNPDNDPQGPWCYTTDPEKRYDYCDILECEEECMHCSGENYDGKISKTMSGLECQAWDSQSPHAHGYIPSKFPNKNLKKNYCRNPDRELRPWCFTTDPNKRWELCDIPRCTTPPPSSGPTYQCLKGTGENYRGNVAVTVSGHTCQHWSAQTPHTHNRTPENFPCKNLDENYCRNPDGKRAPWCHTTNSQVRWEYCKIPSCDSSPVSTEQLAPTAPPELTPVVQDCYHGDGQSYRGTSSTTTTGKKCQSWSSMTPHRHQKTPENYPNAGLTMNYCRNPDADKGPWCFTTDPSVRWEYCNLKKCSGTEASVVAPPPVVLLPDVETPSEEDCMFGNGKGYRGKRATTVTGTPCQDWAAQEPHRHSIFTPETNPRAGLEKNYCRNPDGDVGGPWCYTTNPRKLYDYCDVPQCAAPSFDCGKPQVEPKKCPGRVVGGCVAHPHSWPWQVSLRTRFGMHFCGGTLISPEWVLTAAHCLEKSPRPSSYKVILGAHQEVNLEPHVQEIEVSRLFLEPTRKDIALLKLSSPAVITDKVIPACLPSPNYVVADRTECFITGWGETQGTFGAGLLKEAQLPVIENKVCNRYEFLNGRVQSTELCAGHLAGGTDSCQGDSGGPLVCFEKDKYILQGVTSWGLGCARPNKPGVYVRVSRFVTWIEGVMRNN

By Kd is commonly meant the free concentration of one partner at which half of the binding sites on the other are occupied at equilibrium, for simple one-to-one binding. Read a low Kd as higher affinity. Regarding “rGAPDH C-terminal mutant (K336A) (from UniProt E4QS33 1-336) (enzyme)”, the equilibrium dissociation constant (Kd) came out at 600 nM.
